Source: patent US20250327057A1, “NOVEL AMINOACYL-TRNA SYNTHETASE VARIANTS FOR GENETIC CODE EXPANSION IN EUKARYOTES” (VERAXA Biotech GmbH, priority 2021, published 2025)
Numbering of substitutions follows the chain as printed. Names may count otherwise. “Also recorded” adds a separate entry of the source.

B1: PylRS A1: M. mazei PylRS mutant L309M, C348G, I405R without Y306A/Y384F (SEQ ID NO: 70) (protein)
chain: MDKKPLNTLISATGLWMSRTGTIHKIKHHEVSRSKIYIEMACGDHLVVNNSRSSRTARALRHHKYRKTCKRCRVSDEDLNKFLTKANEDQTSVKVKVVSAPTRTKKAMPKSVARAPKPLENTEAAQAQPSGSKFSPAIPVSTQESVSVPASVSTSISSISTGATASALVKGNTNPITSMSAPVQASAPALTKSQTDRLEVLLNPKDEISLNSGKPFRELESELLSRRKKDLQQIYAEERENYLGKLEREITRFFVDRGFLEIKSPILIPLEYIERMGIDNDTELSKQIFRVDKNFCLRPMLAPNLYNYMRKLDRALPDPIKIFEIGPCYRKESDGKEHLEEFTMLNFGQMGSGCTRENLESIITDFLNHLGIDFKIVGDSCMVYGDTLDVMHGDLELSSAVVGPRPLDREWGIDKPWIGAGFGLERLLKVKHDFKNIKRAARSESYYNGISTNL
B2: PylRS MMA: M. mazei PylRS mutant Y306M, L309M, C348A (SEQ ID NO: 72) (protein)
chain: B1 chain with Y306M, G348A, R405I
B3: PylRS AF A1: PylRS AF variant with 309M, 348G, 405R (SEQ ID NO: 108) (protein)
chain: B1 chain with Y306A, Y384F

Legend:
[1] = system: iRFP-EGFP^Y39TAG reporter in HEK293T cells; experiment: FFC test of importance of Y306A and Y384F for incorporation of bulky ncAAs, Example 3; assay type: cell-based
Description: These new PylRS variants as obtained from example 1 were tested in HEK293T cells utilizing a fluorescent reporter by fluorescent flow cytometry (FFC). The reporter contains an infrared fluorescent protein (iRFP) fused to enhanced green fluorescent protein (EGFP) which harbors an amber stop codon at position Y39 and is called iRFP-EGFP^Y39TAG. To analyze the incorporation efficiency for each new PylRS variant, transient transfection with different ncAAs and different amounts of ncAAs were performed.
The iRFP and EGFP signals were measured after 24 hours post transfection. Therefore, HEK293T cells were seeded in 24-well plate 16 hours prior to transfection. For the two-plasmid transfection, 1 μg of total DNA was used per well. The DNA was mixed with 50 μl of DMEM medium without Phenol Red and 3 μl of PEI were added. After 10 seconds of vortexing and a short centrifugation step, the DNA mixture was incubated 15 minutes in the hood, before it was added dropwise to the well. A master mix was prepared for all wells whenever suitable. After four hours of incubation, the medium was aspirated and fresh medium with different concentrations of ncAAs was added. The concentration of ncAA was 250 μM. After 20 hours of incubation, the iRFP and EGFP signal was analyzed with a flow cytometer analyzer (LSRFortessa™, BD Biosciences). Stock solutions for all ncAAs were prepared as described previously (Nikic, I., Kang, J. H., Girona, G. E., Aramburu, I. V. & Lemke, E. A. Labeling proteins on live mammalian cells using click chemistry. Nat. Protoc. 10, 780-791 (2015)).
To test, if the mutations Y306A and Y384F are really important for the incorporation of bulky ncAAs, these amino acids were changed back to their original amino acid residues by site directed mutagenesis in the case of the PylRS AF A1 variant.
The FFC test was with TCO*A, TCO-E and in addition with Boc using the variants PylRS A1, PylRS AF, PylRS AF A1 and PylRS MMA. PylRS MMA has the mutations 306M 309M 348A. FIG. 3 illustrates the data obtained by FFC in bar plots for the different ncAAs used. […] These bar plot illustrates on how much higher the incorporation efficiency is for each variant compared to PylRS AF.

[2] = system: iRFP-EGFP^Y39TAG reporter in HEK293T cells; experiment: Incorporation assay for cyclooctyne-lysine (SCO) by FFC, Example 4; assay type: cell-based; settings: ncAA SCO, 15.625 μM to 500 μM, FIG. 5
Description: To test the incorporation efficiency of another ncAA by the new variant PylRS A1, an incorporation assay was performed utilizing HEK293T cells. The cells were co-transfected with a plasmid containing NES-PylRS A1 containing as well the corresponding tRNA^Pyl gene together with the reporter plasmid pCI-iRFP-EGFP^Y39TAG-6His (SEQ ID NO: 97). Different concentrations of SCO were added to the growth medium 4 hours after the transfection of the cells ranging from 15.625 μM to 500 μM SCO. After 20 hours of incubation, the iRFP and EGFP signal was analyzed with a flow cytometer analyzer (LSRFortessa™, BD Biosciences) as mentioned above.

Molecule	ability to incorporate bulky ncAAs ([1]; TCO*A, TCO-E, Boc, HEK293T)	incorporation efficiency relative to PylRS AF ([1]; ncAA Boc)	incorporation efficiency (mean GFP/mean iRFP), ranking among variants ([1]; ncAA Boc, FIG. 3C)	incorporation efficiency (mean GFP/mean iRFP), ranking among variants ([1]; ncAA TCO*A, FIG. 3B)	incorporation efficiency relative to PylRS AF ([1]; ncAA TCO*A, independent of the ncAA concentration used) [×]	incorporation efficiency (mean GFP/mean iRFP), ranking among variants ([1]; ncAA TCO-E, FIG. 3A)	incorporation efficiency relative to PylRS AF ([1]; ncAA TCO-E, depending on the concentration used)	incorporation of SCO (EGFP signal by FFC) [2]	incorporation efficiency relative to PylRS AF ([1]; ncAA TCO-E)
B1	better synthetase for bulky ncAAs; also recorded: able to incorporate bulky ncAAs	up to 4.5 ×	highest incorporation efficiency	best incorporation	1.2	highest incorporation efficiency	up to 30 times	can incorporate SCO efficiently	–
B2	–	–	–	–	–	–	–	–	up to 10 ×
B3	–	–	–	–	–	highest incorporation efficiency	–	–	–
